Measurements reported in patent US20240182596A1 (TUBULIS, published 2024).

Assays:
FcγRIIIa (CD16) (V158) = target: T1, FcγRIIIa (CD16) (V158) (Homo sapiens, UniProt P08637); assay: Lumit FcγRIIIa (V158) Binding Immunoassay (Promega), left panel FcγRIIIa (CD16) (V158), competition with Tracer-LgBiT for FcγR-SmBiT, falling luminescence means binding, n=1
T1 construct: m21 joins both polymorphic variants; also called V158 variant of m21

[1] = target: T2, human NaPi2b on NaPi2b-positive cell lines OVCAR-3 and HCC-78 (human, UniProt O95436 1-690); assay: cell-based or functional assay
T2 sequence: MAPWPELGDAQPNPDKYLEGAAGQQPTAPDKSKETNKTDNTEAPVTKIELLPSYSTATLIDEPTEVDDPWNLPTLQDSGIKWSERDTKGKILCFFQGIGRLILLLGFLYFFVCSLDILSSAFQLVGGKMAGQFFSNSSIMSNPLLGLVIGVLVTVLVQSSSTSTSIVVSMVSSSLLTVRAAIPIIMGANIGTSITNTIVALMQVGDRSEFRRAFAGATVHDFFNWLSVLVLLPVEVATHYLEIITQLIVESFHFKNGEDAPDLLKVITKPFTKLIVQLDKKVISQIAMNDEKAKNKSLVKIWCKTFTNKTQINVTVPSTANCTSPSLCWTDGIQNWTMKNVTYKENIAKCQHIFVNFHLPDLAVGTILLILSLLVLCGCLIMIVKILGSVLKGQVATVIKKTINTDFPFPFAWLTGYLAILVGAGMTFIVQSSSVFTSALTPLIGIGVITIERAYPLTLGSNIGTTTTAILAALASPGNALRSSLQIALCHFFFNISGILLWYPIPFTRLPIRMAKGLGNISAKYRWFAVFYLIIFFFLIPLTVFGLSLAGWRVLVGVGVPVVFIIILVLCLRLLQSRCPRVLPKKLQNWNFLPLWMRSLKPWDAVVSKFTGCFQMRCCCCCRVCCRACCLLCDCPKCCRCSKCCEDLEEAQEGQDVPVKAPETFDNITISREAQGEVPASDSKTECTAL

FcγRIIIa (CD16) (F158) = target: T3, FcγRIIIa (CD16) (F158) (Homo sapiens, UniProt P08637); assay: Lumit FcγRIIIa (F158) Binding Immunoassay (Promega), right panel FcγRIIIa (CD16) (F158), competition with Tracer-LgBiT for FcγR-SmBiT, falling luminescence means binding, n=1
T3 construct: m21 joins both polymorphic variants; also called F158 variant of m21
T3 sequence (P08637 17-208 limits assumed): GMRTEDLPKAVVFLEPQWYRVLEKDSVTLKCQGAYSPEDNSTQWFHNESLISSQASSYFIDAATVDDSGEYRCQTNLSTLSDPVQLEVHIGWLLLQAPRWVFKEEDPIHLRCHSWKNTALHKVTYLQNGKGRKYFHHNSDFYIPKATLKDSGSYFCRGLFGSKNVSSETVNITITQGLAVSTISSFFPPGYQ

[2] = target: T4, human Napi2a-mCherry on HEK293 cells (human, UniProt Q06495 1-639); assay: flow cytometry on HEK293 cells expressing human Napi2a-mCherry (panel Napi2a-HEK293), MFI ratio to the non-specific binding control
T4 construct: whole, on cells; also called Napi2a (SLC34A1); not shown: mCherry fusion
T4 sequence (looked up): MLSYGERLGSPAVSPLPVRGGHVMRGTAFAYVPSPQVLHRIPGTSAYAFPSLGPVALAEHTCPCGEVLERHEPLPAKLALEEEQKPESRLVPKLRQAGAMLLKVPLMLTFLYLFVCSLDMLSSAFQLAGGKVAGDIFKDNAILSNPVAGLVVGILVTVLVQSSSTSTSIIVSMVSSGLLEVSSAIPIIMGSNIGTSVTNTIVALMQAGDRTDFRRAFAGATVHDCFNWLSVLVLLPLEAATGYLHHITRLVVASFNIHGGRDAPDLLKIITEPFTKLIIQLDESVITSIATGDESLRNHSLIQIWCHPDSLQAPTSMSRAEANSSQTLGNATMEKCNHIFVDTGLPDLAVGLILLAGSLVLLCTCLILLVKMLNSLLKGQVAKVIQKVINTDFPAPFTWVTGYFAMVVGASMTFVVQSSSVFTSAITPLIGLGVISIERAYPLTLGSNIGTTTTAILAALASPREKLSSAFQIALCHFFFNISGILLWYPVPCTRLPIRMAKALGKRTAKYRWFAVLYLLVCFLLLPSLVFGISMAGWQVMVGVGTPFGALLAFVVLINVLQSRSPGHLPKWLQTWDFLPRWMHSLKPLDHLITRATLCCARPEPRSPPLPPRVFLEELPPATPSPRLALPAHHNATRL

[3] = target: T5, human Napi2b-mCherry on HEK293 cells (human, UniProt O95436 1-690); assay: flow cytometry on HEK293 cells expressing human Napi2b-mCherry (panel Napi2b-HEK293), Alexa-dye anti-human IgG H+L secondary antibody, MFI ratio to the non-specific binding control
T5 construct: also called Napi2b (SLC34A2); HEK293 cells overexpressing Napi2b
T5 sequence: T2 sequence

[4] = target: T6, recombinant human FcγRI (FcγR-SmBiT, Lumit assay) (human, UniProt P12314 16-292); assay: Lumit FcγRI Binding Immunoassay (Promega), competition with Tracer-LgBiT for FcγRI-SmBiT, falling luminescence means binding, n=1
T6 construct: Kit reagent (Promega); also called FcγRI (CD64); not shown: SmBiT label of the kit
T6 sequence (P12314 16-292): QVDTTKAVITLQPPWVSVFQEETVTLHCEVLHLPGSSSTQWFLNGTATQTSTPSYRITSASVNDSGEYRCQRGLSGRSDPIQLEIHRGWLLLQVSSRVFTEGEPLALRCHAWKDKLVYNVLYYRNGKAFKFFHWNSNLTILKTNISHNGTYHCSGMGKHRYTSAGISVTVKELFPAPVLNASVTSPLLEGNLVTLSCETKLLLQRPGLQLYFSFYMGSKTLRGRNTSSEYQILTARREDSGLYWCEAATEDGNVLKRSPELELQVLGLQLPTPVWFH

FcγRIIa (CD32) (H131) = target: T7, FcγRIIa (CD32) (H131) (Fused to the SmBiT luciferase fragment (Promega Lumit reagent), not carried in the letters); assay: Lumit FcγRIIa (H131) Binding Immunoassay (Promega), left panel FcγRIIa (CD32) (H131), competition with Tracer-LgBiT for FcγR-SmBiT, n=1
T7 construct: m20 joins both polymorphic variants; also called H131 variant of m20; not shown: SmBiT tag (and any linker or purification tag) of Promega's FcγR-SmBiT fusion
T7 chain: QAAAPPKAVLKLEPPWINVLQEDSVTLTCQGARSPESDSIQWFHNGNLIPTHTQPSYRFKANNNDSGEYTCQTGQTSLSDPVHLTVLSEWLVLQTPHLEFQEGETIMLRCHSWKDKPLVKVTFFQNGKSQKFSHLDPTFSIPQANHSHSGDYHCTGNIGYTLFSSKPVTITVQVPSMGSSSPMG

[5] = target: T8, human Napi2c-mCherry on HEK293 cells (human, UniProt Q8N130 1-599); assay: flow cytometry on HEK293 cells expressing human Napi2c-mCherry (panel Napi2c-HEK293), MFI ratio to the non-specific binding control
T8 construct: whole, on cells; also called Napi2c (SLC34A3); not shown: mCherry fusion
T8 sequence (looked up): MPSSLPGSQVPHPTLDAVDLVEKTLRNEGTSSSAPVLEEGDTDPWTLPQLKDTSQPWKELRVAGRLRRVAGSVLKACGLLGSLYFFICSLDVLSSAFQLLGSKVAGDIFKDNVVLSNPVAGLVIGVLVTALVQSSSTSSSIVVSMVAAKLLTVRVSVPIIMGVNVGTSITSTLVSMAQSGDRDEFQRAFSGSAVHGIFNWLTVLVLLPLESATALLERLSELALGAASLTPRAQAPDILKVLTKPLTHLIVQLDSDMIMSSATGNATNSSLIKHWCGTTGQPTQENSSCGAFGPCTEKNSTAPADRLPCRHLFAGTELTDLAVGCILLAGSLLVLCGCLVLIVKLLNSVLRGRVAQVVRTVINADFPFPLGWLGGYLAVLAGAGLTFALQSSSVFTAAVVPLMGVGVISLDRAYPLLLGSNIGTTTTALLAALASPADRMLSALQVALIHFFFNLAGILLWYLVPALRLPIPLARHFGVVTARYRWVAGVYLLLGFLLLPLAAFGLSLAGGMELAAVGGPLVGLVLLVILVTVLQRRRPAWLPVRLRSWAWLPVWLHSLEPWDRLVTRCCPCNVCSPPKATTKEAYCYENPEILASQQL

T1 sequence (P08637 17-208 F176V limits assumed): as the sequence (P08637 17-208 limits assumed) above, with F160V counted along it

B1: AV25-P5(PEG24)-VC-PAB-Exatecan DAR8 ADC (antibody, human IgG1, kappa, L234A L235A)
heavy: not shown
light: DIQMTQSPSSLSASVGDRVTITCSASQDIGNFLNWYQQKPGKTVKVLIYYASSLYSGVPSRFSGSGSGTDYTLTISSLQPEDFATYYCQQYSKLPLTFGQGTKLELKRTVAAPSVFIFPPSDEQLKSGTASVVCLLNNFYPREAKVQWKVDNALQSGNSQESVTEQDSKDSTYSLSSTLTLSKADYEKHKVYACEVTHQGLSSPVTKSFNRGEC
modifications: P5(PEG24)-VC-PAB-Exatecan linker-payload on the interchain cysteine (1 per light chain, DAR8); P5(PEG24)-VC-PAB-Exatecan linker-payload on interchain cysteines (up to 3 per heavy chain, DAR8)
notes: also called TUB-040
Q: Does B1 bind (FcγRIIIa (CD16) (V158))?
A: binds

Q: And the “IC50 of cytotoxicity (resazurin assay, 7 days) on HCC-78, against the anti-Napi2b comparison ADC” value [1]?
A: 15.5 fold lower IC50

Q: Does B1 bind (FcγRIIIa (CD16) (F158))?
A: binds

Q: Does B1 bind [2]?
A: no binding (tested: 200 nM)

Q: What about the “EC50 (read off the curve)” value [3] of the same binder?
A: ~0.9 nM

Q: Does B1 bind [4]?
A: binds

Q: Does B1 bind (FcγRIIa (CD32) (H131))?
A: no binding

Q: Does B1 bind [5]?
A: no binding (tested: 200 nM)
